Experiments:
[1] = molecular target: T1, Macaca fascicularis CD123 Fc-fusion protein (Macaca fascicularis); test: SPR Proteon XPR36, rat IgG captured, CD123-Fc analyte
T1 construct: also called cyno CD123-Fc
Procedure: (§1) Screening of anti-CD123 rat IgGs for binding affinities to human CD123 and cross-reactivities to cyno CD123 was performed with hybridoma supernatants using a Proteon XPR36 (Biorad) in a one-shot kinetics approach. A capture assay was established using a goat anti-rat IgG (112-005-071, Jackson Immuno Research). The capture antibody was coated on GLC chips (176-5011, Biorad) to approx. 8000 RU in the vertical direction using the amine coupling kit (176-2410, Biorad). […] Binding kinetics with human and cyno CD123-Fc fusion protein was measured at 100 μl/min in the horizontal direction with 120 sec. and 600 sec. for association and dissociation, respectively. The CD123-Fc proteins were used in twofold dilutions from 6 nM to 100 nM. PBSET buffer (176-2730, Biorad) was used as assay buffer. Regeneration was achieved by injection of 10 mM Glycine buffer pH 1.5 for 18 sec at 30 μl/min. Data processing and analysis was performed using ProteonManager software v3.0. Fitting of the sensorgrams was done with a 1:1 Langmuir model.

[2] = molecular target: T2, human CD123 (IL3RA) on cells (human, UniProt P26951 19-378); test: flow cytometry, CD123 transfected HEK293, hybridoma supernatant
T2 construct: also called CD123 transfected HEK293; THP-1
Procedure: Cells were resuspended in 200 μl Stain Buffer with FBS per well and were measured using the MACSQuant (Miltenyi Biotec) or LSRII (BD) flow cytometer. Further data analyses were performed using the FlowJo software (Tree Star, Inc.). Read out was percentage of cells positive for antibody binding. Cells treated only with the secondary but no primary antibody were used to set the gates. Curves were calculated by XLfit (Algorithm 205).

[3] = molecular target: T3, human CD3ε/δ-Fc fusion protein (soluble recombinant CD3ε/δ complex) (human, UniProt P04234 22-105); test: SPR single point, hybridoma supernatant
T3 construct: also called huCD3ε/δ; huCD3; not shown: hinge, CH2, CH3 of human IgG with tag
Procedure: Rats with positive sera were scarified and B cells were fused with mouse myeloma cells. The resulting hybrndomas were screened on HEK293 cells transfected with human or cynomoligus CD3ε and CD3δ expression plasmids, on Jurkat E6.1 (CD3+) and Jurkat T3.5 (CD3-) by flow cytometry. Supernatant of Hybridoma clones was used to assess by surface plasmon resonance single point kinetic against human and Macaca fascicularis CD3ε/δ complex by fixing the analyte at 25 nM (data presented in table 3).

[4] = molecular target: T4, human CD3δ expressed alone on HEK293F cells (human, UniProt P04234 22-171); test: flow cytometry, HEK293F transfected with huCD3δ
T4 construct: entry includes the signal peptide; also called huCD3δ
Procedure: To analyze binding of antibodies to human CD3ε and human CD3δ expressed on the surface of cells, HEK293F cells were transfected with both constructs either alone or in co-transfection and signals were measured by flow cytometry. For transfection procedure FuGENE HD Transfection Reagent (Promega, #E2311) was used according to manufacturer's protocol.
Cells were incubated on a shaker at 37° C. and 5% CO2. At day one to three after transfection cells were harvested and binding of antibodies was analyzed by flow cytometry.
Antibodies for staining were seeded at 1 μg in 50 μl per well Stain Buffer with FBS (BD Pharmingen) in 96-well U-bottom suspension culture plates (Greiner bio-one). Harvested transfected cells were resuspended in Stain Buffer with FBS and were added at 50 μl per well to the antibodies. Cells were incubated at 4° C. in the dark for 30 min and were washed twice. 0.5 μg secondary antibody Goat F(ab′)2 Anti-Human IgG-FITC (Beckman Coulter, #732598) or Goat F(ab′)2 Anti-Human kappa-PE (Southern Biotech, #206209), respectively, in combination with 0.5 μg 7-AAD per well was added in 100 μl Stain Buffer with FBS. Cells were incubated at 4° C. in the dark for 15 min and were washed twice. For measurement, cells were resuspended in 200 μl Stain Buffer with FBS. Cells were measured using the MACSQuant (Miltenyi Biotec) or LSRII (BD) flow cytometer, respectively. Further data analyses were performed using the FlowJo software (Tree Star, Inc.).

[5] = molecular target: T5, human CD123 Strep-II tagged Fc-fusion protein (human); test: SPR Proteon XPR36, rat IgG captured, CD123-Fc analyte
T5 construct: also called human CD123-Fc; recombinant CD123
Procedure: as §1

T3 sequence (chain, as listed by the source mutant, chain 1 of 2): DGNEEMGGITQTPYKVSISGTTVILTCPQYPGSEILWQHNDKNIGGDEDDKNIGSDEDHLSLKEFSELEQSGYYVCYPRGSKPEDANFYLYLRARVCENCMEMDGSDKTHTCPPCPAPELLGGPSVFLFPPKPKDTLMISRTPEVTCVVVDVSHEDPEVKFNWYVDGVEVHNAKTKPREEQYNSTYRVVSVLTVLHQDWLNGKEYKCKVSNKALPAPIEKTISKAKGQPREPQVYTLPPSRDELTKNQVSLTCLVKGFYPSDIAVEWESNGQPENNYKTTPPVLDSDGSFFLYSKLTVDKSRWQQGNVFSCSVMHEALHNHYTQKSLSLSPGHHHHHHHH
T3 sequence (P04234 22-105, stated change not applied, chain 2 of 2): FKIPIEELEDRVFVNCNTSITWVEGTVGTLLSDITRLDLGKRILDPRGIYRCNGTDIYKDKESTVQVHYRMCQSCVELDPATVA
T5 sequence (chain, as listed by the source limits assumed): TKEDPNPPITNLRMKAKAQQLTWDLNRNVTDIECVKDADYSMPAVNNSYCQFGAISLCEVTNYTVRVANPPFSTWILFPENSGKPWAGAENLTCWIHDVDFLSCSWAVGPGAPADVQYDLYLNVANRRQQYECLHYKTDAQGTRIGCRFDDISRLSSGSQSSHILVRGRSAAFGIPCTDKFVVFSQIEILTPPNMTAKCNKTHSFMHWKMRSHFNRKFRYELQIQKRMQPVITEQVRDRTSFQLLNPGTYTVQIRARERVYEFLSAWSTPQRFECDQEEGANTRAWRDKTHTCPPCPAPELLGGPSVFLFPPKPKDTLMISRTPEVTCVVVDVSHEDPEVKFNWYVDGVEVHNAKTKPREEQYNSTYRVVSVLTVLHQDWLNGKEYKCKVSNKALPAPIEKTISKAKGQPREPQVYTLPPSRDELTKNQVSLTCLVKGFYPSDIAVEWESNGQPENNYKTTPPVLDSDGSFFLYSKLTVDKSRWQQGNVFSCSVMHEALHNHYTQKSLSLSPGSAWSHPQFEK
T2 sequence (P26951 19-378): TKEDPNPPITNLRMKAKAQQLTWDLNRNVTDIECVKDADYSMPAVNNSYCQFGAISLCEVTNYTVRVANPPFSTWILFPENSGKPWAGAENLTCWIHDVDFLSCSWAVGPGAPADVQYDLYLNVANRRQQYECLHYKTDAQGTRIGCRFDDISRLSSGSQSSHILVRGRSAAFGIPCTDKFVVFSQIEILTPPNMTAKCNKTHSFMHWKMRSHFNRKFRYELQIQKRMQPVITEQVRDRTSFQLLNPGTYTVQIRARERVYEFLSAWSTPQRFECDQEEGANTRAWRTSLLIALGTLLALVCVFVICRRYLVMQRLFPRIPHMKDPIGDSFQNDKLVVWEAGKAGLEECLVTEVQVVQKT
T4 sequence (P04234 22-171 limits assumed, stated change not applied): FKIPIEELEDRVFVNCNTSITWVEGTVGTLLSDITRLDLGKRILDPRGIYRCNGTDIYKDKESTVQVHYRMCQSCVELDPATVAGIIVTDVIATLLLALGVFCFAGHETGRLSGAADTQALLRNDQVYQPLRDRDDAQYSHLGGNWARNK
T1 sequence (chain, as listed by the source limits assumed): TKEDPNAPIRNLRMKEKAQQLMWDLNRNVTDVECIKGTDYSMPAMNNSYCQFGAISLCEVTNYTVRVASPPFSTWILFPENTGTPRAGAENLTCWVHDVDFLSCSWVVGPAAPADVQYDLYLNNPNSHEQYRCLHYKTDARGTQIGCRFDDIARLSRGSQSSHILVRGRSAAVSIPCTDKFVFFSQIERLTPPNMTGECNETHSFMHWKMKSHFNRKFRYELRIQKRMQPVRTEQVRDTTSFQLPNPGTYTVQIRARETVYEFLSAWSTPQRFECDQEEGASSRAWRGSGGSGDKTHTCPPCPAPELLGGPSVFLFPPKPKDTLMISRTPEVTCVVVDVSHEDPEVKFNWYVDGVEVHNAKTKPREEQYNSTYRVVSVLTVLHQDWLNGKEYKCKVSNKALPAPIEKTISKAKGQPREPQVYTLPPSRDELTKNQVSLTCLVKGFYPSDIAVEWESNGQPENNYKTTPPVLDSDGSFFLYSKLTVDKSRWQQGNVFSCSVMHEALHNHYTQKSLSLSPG

Row | Binder | RU at 25 nM [3] [RU] | other results
1 | 3B10-E6 anti-CD123 rat IgG (hybridoma supernatant) (antibody, V domains shown, rat IgG; also called BFX - 3B10) VH: QVQLQQSGPELRRPGSSVRLSCKASGYRIKDFLIHWIKNRPEHGLEWIGWIDPEDGETKYAQKFQTKATLTADTSSNTAYMQLSSLTSEDTATYFCARWGDVYYGLMRGHVMDAWGQGTSVTVSS VL: DVLMTQTPVSLPVSLGGQVSISCRSSQSLVHSDGDTYLHWYLQKPGQSPQLLIYRVSNRFSGVPDRFSGSGSGTDFTLKISRVEPEDLGLYYCLQTTHFPPWTFGGGTKLEMK | – | Kd [1]: 270 pM; EC50 [2]: 2 ng/mL
2 | 10E6-G6 anti-CD3 antibody (hybridoma supernatant) (antibody, V domains shown, rat IgG in hybridoma supernatant) VH: EVQLVETGGGLVQSGKSLKLTCATSGFTVTNAWMHWVRQSPEKQLEWVAQIKAKSNNYETYYAESVKGRFTISRDDSKSSVYLQMNSLKEEDTAIYYCRGTQYGYNPFDYWGQGVMVTVSS VL: DVVMTQSPVSLSVSLGGQVSISCRSSQSLVHNNGYTYLSWYLQKPGQSPQVFIYKVSNRFSGISDRFSGSGSGTDFTLKISRIEPDDLGVYYCGQGTHYPFTFGSGTKLEIK | 10.5 | –
3 | 12D2-E5 Fab (Fab, V domains shown) VH: EVKLVESGGGLVQPGRSLRLSCAASGFNFYAYWMGWVRQAPGKGLEWIGEIKKDGTTINYTPSLKDRFTISRDNAQNTLYLQMTKLGSEDTALYYCAREERDGYFDYWGQGVMVTVSS VL: QFVLTQPNSVSTNLGSTVKLSCKRSTGNIGSNYVNWYQQHEGRSPTTMIYRDDKRPDGVPDRFSGSIDRSSNSALLTINNVQTEDEADYFCQSYSSGIVFGGGTKLTVL | – | binding result [4]: no binding (tested: <20% of binding of huCD3e + huCD3d)
4 | 5B1-G2 Fab (Fab, V domains shown) VH: EVQVVETGGSLVQPGKSLKLTCATSGFSFSNAWMHWVRQSPEKQLEWVAQIKDKANNYATYYAESVKGRFTISRDDSKGSIYLQMNSLKEEDTAVYYCRGLYYGLFPSDYWGQGVMVTVSS VL: DVVMTQTPVSLSVSLGGQVSISCRSSQSLVHNNGNTYLSWYLLKPGQSPQLLIYKVSNRFSGISDRFSGGGSGTDFTLKISRLEPDDLGIYYCGQGTQYPFTFGSGTKLEIK | – | binding result [4]: no binding (tested: <20% of binding of huCD3e + huCD3d)
5 | 10F4-C10 anti-CD3 antibody (hybridoma supernatant) (antibody, V domains shown, rat IgG in hybridoma supernatant) VH: EVQLVETGGSLVQPGKSLKITCATSGFTFSNAWMHWVRQSPEKQLEWVAQIKAKSNNYATYYAESVKGRFTISRDDSKSSIYLQMNSLKEEDTAIYYCRAVNYGNYPLDYWGQGVMVTVSS VL: DVVMTQTPVSLSVSLGGQVSISCRSSQSLVHNNGNTYLSWCLQKPGQSPQLLIYKVSNRFSGISDRFSGSGSGTDFTLKISRVEPDDLGVYYCGQGTQYPFTFGAGTKLELK | 22 | –
6 | 12G3-E8 anti-CD3 antibody (hybridoma supernatant) (antibody, V domains shown, rat IgG in hybridoma supernatant) VH: EVRVVETGGSLVQPGKSLKLTCATSGFTFSLAWMHWVRQSPEKKLEWVAQIKDKANNYATYYAESVKGRFTISRDDSKRSVYLQMNRLKEEDTAIYYCRGVYYGFSMTPFDYWGQGVMVTVSS VL: DVAMTQTPVSLSVSLGGQVSISCRSSQSLVHNNGNTYLSWYLQKPGQSPQVLIYKVSNRFSGISDRFSGSGSGADFTLKISRVEPDDLGVYYCGQGTQYPFTFGAGTKLELK | 24 | –
7 | 11F3-B9 anti-CD3 antibody (hybridoma supernatant) (antibody, V domains shown, rat IgG in hybridoma supernatant) VH: EVQLVETGGSLVQPGKSLTLTCATSGFTFSNAWMHWVRQSPEKQLEWVAQIKAKSNNYATYYAESVKGRFTISRDDSKRSVYLQMNSLKEEDTAIYYCRYVNYGLAPMDVWGQGTSVTVSS VL: DVVMTQTPVSLSVSLGGQVSISCRSSQSLVHDNGNTYLSWYLQKPGQSPQLLIYKVSNRFSGFSDRFSGSGSGTDFTLKISRVEPDDLGVYYCGQGTQYPFTFGAGTKLELK | 22 | –
8 | 3H6-D2 anti-CD3 antibody (hybridoma supernatant) (antibody, V domains shown, rat IgG in hybridoma supernatant) VH: EVQLVETGGRLVQPGKSLKLTCATSGFTFSNAWMHWVRQSPEKQLEWVAQIKDKSNNYATYYAESVKGRFTISRDDSKSIIYLQMNSLKEEDTAIYYCRALTYYGYKRDAMDGWGHGTSVTVSS VL: DVVMTQTPVSLSVSLGGQVSISCRSSQSLVHNNGNTYLSWYLQKPGQSPQLLIYKVSNRFSGISDRFSGSGSGTDFTLKISRVEPDDLGVYYCGQGTQYPFTFGAGTKLELK | 9.5 | –
9 | 1E1-G5 anti-CD123 rat IgG (hybridoma supernatant) (antibody, V domains shown, rat IgG; also called BFX - 1E1) VH: QVQLQESGPTLVKPGDSVKMSCKAFGYTFTDHIIHWVKQSHGKSLEWIGYINPYSGGTNYNEKFKSKATLTVDKSSSTAYMEFSRLTSEDSAICYCALNYGSYYAMDAWGQGTSVTVSS VL: DIQMTQSPASLSASLGQTVTIECRPSEDIYSNLAWFQQKPGSSPQLLIYDANNLADGVPSRFSGSGSGTQYSLKINSLQSEDVASYFCQQYNKYPYTFGTGTKLELK | – | Kd [1]: 720 pM; Kd [5]: 230 pM; koff [5]: 0.00011 s⁻¹; kon [5]: 460000 M⁻¹ s⁻¹; EC50 [2]: 2.2 ng/mL
10 | 6D6-B8 anti-CD123 rat IgG (hybridoma supernatant) (antibody, V domains shown, rat IgG; also called BFX - 6D6) VH: QVQLQESGPTLVKPGDSVKMSCKASAYTFTDNIIHWVKQSHGKSLDWIGYINPYSGGTNYNGWFRSKATLTVDKSSSTAYMEFSRLTSDDSAIYYCALNYGSYYAMDAWGQGTSVTVSS VL: DIQMTQSPASLSASLGETVTIDCRPSEDIFNNLAWYQQKPGNSPQLLIYDANSLADGVPSRFSGSGSGTQYSLMIIRLQSEDVASYFCHQYNIYPYTFGAGTKLELK | – | EC50 [2]: 0.9 ng/mL

Continued, in another order:

Row | RU at 25 nM [3] [RU] | Binder | other results
11 | 16 | 13H2-C3 anti-CD3 antibody (hybridoma supernatant) (antibody, V domains shown, rat IgG in hybridoma supernatant; also called 13H2-C2) VH: EEELVETGGSLVQPGKSLKLTCATSGFTFSNAWMHWVRQSPDKQLEWVAQIKAKSNNYATYYAESVKGRFTISRDDSKSSVYLQMNNLKEEDTAIYYCRYVHYGLAPMDAWGQGTSVTVSS VL: DVVMTQTPVSLSVSLGGQVSISCRSSQSLVHNNGNTYLSWYLQKAGQSPQLLIYKVSNRFSGISDRFSGSGSGTDFILKISRVEPDDLGVFYCGQGTQYPFTFGAGTKLELK | –
12 | 17.5 | 16F8-A7 anti-CD3 antibody (hybridoma supernatant) (antibody, V domains shown, rat IgG in hybridoma supernatant) VH: VETGGNLVQPGKSLKLTCATSGFTFSNAWMHWVRQSPEKQLEWVAQIKAKSNNYATYYAESVKGRFTISRDDSKSSVYLQMNSLKEEDTAIYYCRYVNYGLAPMDVWGQGTSVTVSS VL: DVVMTQTPVSLSVSLGGQVSISCRSSQSLVHNNGNTYLSWYLQKPGQSPQLLIYKVSNRFSGFSDRFSGSGSGTDFTLKISRVEPDDLGVYYCGQGTQYPFTFGAGTKLELK | –
13 | 12 | 20E5-F10 anti-CD3 antibody (hybridoma supernatant) (antibody, V domains shown, rat IgG in hybridoma supernatant) VH: EVQLVETGENLVQPGKSLRLTCATSGFSFSNAWMHWIRQSPEKQLEWVAQIKDKSNNYATYYAESVNGRFTISRDDSKSSIYLHMDNLKEEDSAIYYCRYVHYGVRFFYTMDVWGQGTSVTVSS VL: DVVMTQTPVSLSVSLGDQVSISCRPSQSLVHNNGNTYLSWYLQKPGQSPHPLIYKVSNRFSGISDRFSGSGSGTDFTLKISRVEPDDLGVYYCGQGTQYPFTFGSGTKLEIK | –
14 | 7 | 18G9-H11 anti-CD3 antibody (hybridoma supernatant) (antibody, V domains shown, rat IgG in hybridoma supernatant) VH: EVQLVETGGSLVQPGKSLKLTCATSGFTFSNAWIQWVRQSPEKQLEWVAQIKAKSNNYATYYAESVKGRFTISRDDSKSSVYLQMNSLKEEDTALYYCTWRHYYSSHTMDAWGQGTLVTVSS VL: DVVMTQTPVSLSVSLGGQVSISCRSSQSLVHNNGNTYLSWYLQKPGQSPQLLIYKVSNRFSGISDRFSGSGSGTDFTLKISRVAPTDLGVYYCGQGSQYPFTFGAGTKLELK | –
15 | 35 | 18H11-F10 anti-CD3 antibody (hybridoma supernatant) (antibody, V domains shown, rat IgG in hybridoma supernatant) VH: EVQLVESGGGLVQPGRSLKLSCAASGFIFSDYYMAWVRQAPKKGLEWVATISISGSRTYYPDSVKGRFTVSRDNAKSSLYLQMNSLKSEDTATYYCATNNPGGWFVYWGQGTLVTVSS VL: NIQMTQSPSLLSASVGDRVTLSCKAGQNINNDLAWYQQKLGEAPRLLIYNANSLQTGIPSRFSGSGSGADFTLTISSLQPEDVATYFCQQYSSGDTFGAGTKLELK | –

— patent publication US20210292423A1 (published 2021)
